Results published in patent US20240116997A1.

These substances were tested against His-tagged human IL-18BP (human) (UniProt O95998) (assay: AlphaLISA of free IL-18BP after incubation with IL-18 dilutions).
Sequence of His-tagged human IL-18BP (human) (O95998 31-194): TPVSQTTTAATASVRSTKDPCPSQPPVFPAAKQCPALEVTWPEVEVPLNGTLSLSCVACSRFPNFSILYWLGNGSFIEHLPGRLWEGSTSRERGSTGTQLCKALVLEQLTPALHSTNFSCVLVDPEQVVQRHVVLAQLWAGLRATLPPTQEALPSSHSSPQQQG

Sequence of IL-18 WT (native sequence, SEQ ID NO: 1) (Q14116 37-193): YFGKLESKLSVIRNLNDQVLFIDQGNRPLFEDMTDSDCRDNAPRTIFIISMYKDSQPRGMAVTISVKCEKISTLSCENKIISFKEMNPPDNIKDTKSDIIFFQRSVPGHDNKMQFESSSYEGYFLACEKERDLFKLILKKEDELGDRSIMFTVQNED

Row | Substance | Kd
1 | IL-18 polypeptide SEQ ID NO: 41 (K53A, S55A) (from UniProt Q14116 37-193) (ligand) | 500 nM
2 | C159 (V11I, C38A, K53A, C76A, H109A, C127A) (from UniProt Q14116 37-193) (ligand) | 0.55 nM
3 | C144 (V11I, C38A, K53A, T63A, C76A, C127A) (from UniProt Q14116 37-193) (ligand) | 0.66 nM
4 | IL-18 polypeptide SEQ ID NO: 54 (E06K, K53A, C38S, C68S, C76S, C127S, K70C) (from UniProt Q14116 37-193) (ligand) | 446 nM
5 | IL-18 polypeptide SEQ ID NO: 39 (E06K, K53A) (from UniProt Q14116 37-193) (ligand) | 130 nM
6 | C163 (V11I, C38A, C76A, Q103K, C127A) (from UniProt Q14116 37-193) (ligand) | 0.05 nM
7 | C168 (V11I, C38A, C76A, S105K, C127A) (from UniProt Q14116 37-193) (ligand) | 0.05 nM
8 | IL-18 polypeptide SEQ ID NO: 48 (C38S, C68S, C76S, C127S, K70C) (from UniProt Q14116 37-193) (ligand) | 0.21 nM
9 | C156 (V11I, C38A, N41A, K53A, C76A, C127A) (from UniProt Q14116 37-193) (ligand) | 18.5 nM
10 | IL-18 polypeptide SEQ ID NO: 40 (E06K, S55A) (from UniProt Q14116 37-193) (ligand) | 12.3 nM
11 | C155 (V11I, C38A, D40A, K53A, C76A, C127A) (from UniProt Q14116 37-193) (ligand) | 0.74 nM
12 | IL-18 polypeptide SEQ ID NO: 37 (S55A) (from UniProt Q14116 37-193) (ligand) | 10.7 nM
13 | C142 (Y1M, E6K, V11I, C38A, K53A, T63A, C76A, C127A) (from UniProt Q14116 38-193) (ligand) | 2.25 nM
14 | C152 (V11I, S36A, C38A, K53A, C76A, C127A) (from UniProt Q14116 37-193) (ligand) | 1.12 nM
15 | IL-18 polypeptide SEQ ID NO: 47 (C38S, C68S, C76S, C127S) (from UniProt Q14116 37-193) (ligand) | 0.03 nM
16 | C158 (V11I, C38A, K53A, C76A, G108A, C127A) (from UniProt Q14116 37-193) (ligand) | 1.24 nM
17 | C145 (V11I, C38A, K53A, S55A, C76A, C127A) (from UniProt Q14116 37-193) (ligand) | 9.74 nM
18 | C150 (V11I, T34A, C38A, K53A, C76A, C127A) (from UniProt Q14116 37-193) (ligand) | 1.24 nM
19 | IL-18 WT (native sequence, SEQ ID NO: 1) (from UniProt Q14116 37-193) (ligand) | 0.67 nM
20 | C161 (K8R, V11I, C38A, C76A, Q103E, C127A) (from UniProt Q14116 37-193) (ligand) | 0.06 nM
21 | IL-18 polypeptide SEQ ID NO: 38 (E06K) (from UniProt Q14116 37-193) (ligand) | 0.13 nM
22 | C176 (E6K, V11I, C38A, I49M, K53A, T63A, C76A, C127A) (from UniProt Q14116 37-193) (ligand) | 25.8 nM
23 | IL-18 polypeptide SEQ ID NO: 56 (E6K, K53A, C38S, C76S, C127S) (from UniProt Q14116 37-193) (ligand) | 436 nM
24 | C160 (V11I, C38A, K53A, C76A, D110A, C127A) (from UniProt Q14116 37-193) (ligand) | 0.71 nM
25 | C166 (V11I, C38A, S55T, C76A, C127A) (from UniProt Q14116 37-193) (ligand) | 0.02 nM
26 | C143 (V11I, C38A, K53A, C76A, C127A) (from UniProt Q14116 37-193) (ligand) | 8.86 nM

The remaining substances from weak to strong by Kd, led by results:

Row | Kd | Substance
27 | 969 nM | IL-18 polypeptide SEQ ID NO: 35 (Y01G, F02A, E06K, M51G, K53A, D54A, S55A, T63A) (from UniProt Q14116 37-193) (ligand)
28 | 913 nM | IL-18 polypeptide SEQ ID NO: 55 (K53A, T63A, C38S, C68S, C76S, C127S, K70C) (from UniProt Q14116 37-193) (ligand)
29 | 822 nM | IL-18 polypeptide SEQ ID NO: 42 (E06K, K53A, S55A, T63A) (from UniProt Q14116 37-193) (ligand)
30 | 514 nM | IL-18 polypeptide SEQ ID NO: 36 (K53A) (from UniProt Q14116 37-193) (ligand)
31 | 373 nM | C146 (SEQ ID NO: 79; V11I, C38A, M51G, K53A, C76A, C127A) (from UniProt Q14116 37-193) (ligand)
32 | 340 nM | IL-18 polypeptide SEQ ID NO: 50 (E06K, K53A, T63A) (from UniProt Q14116 37-193) (ligand)
33 | 198 nM | IL-18 polypeptide SEQ ID NO: 53 (K53A, T63A) (from UniProt Q14116 37-193) (ligand)
34 | 57.2 nM | C148 (F2A, V11I, C38A, K53A, C76A, C127A) (from UniProt Q14116 37-193) (ligand)
35 | 50.2 nM | IL-18 polypeptide SEQ ID NO: 57 (E6K, C38S, K53A) (from UniProt Q14116 37-193) (ligand)
36 | 25.8 nM | C147 (V11I, C38A, K53A, D54A, C76A, C127A) (from UniProt Q14116 37-193) (ligand)
37 | 13.7 nM | C157 (V11I, C38A, K53A, C76A, C127A, D132A) (from UniProt Q14116 37-193) (ligand)
38 | 5.46 nM | C184 (E6R, V11I, C38A, K53A, T63A, C76A, C127A) (from UniProt Q14116 37-193) (ligand)
39 | 4.55 nM | C153 (V11I, D37A, C38A, K53A, C76A, C127A) (from UniProt Q14116 37-193) (ligand)
40 | 2.88 nM | C151 (V11I, D35A, C38A, K53A, C76A, C127A) (from UniProt Q14116 37-193) (ligand)
41 | 2.59 nM | IL-18 polypeptide SEQ ID NO: 51 (T63A) (from UniProt Q14116 37-193) (ligand)
42 | 2.12 nM | C154 (V11I, E31A, D37A, C38A, K53A, C76A, C127A) (from UniProt Q14116 37-193) (ligand)
43 | 0.85 nM | C162 (K8E, V11I, C38A, C76A, Q103R, C127A) (from UniProt Q14116 37-193) (ligand)
44 | 0.83 nM | IL-18 polypeptide SEQ ID NO: 52 (E06K, T63A) (from UniProt Q14116 37-193) (ligand)
45 | 0.64 nM | C149 (V11I, E31A, C38A, K53A, C76A, C127A) (from UniProt Q14116 37-193) (ligand)
46 | 0.15 nM | C165 (V11I, C38A, S55R, C76A, C127A) (from UniProt Q14116 37-193) (ligand)
47 | 0.14 nM | C174 (K8L, E6K, V11I, C38A, K53A, T63A, C76A, C127A) (from UniProt Q14116 37-193) (ligand)
48 | 0.08 nM | C164 (V11I, C38A, S55H, C76A, C127A) (from UniProt Q14116 37-193) (ligand)
49 | 0.04 nM | C167 (V11I, C38A, C76A, S105I, C127A) (from UniProt Q14116 37-193) (ligand)
